Measurements as given in patent publication US11707511B2, “Vaccine compositions and methods of using the same” (The Board of Supervisors of Louisiana State University and …, priority 2017, dated 2023).

Tested on: C. parapsilosis ATCC MYA-4646
Experiment: Passive transfer of mAbs, neutropenic mouse model of disseminated candidiasis by C. parapsilosis
Assay type: in vivo
Conditions: Table 6; neutropenic BALB/c mice; mAb i.p. 4 h before 5×10^6 C. parapsilosis i.v.
Description: Induction of neutropenia. Although C. albicans remains the dominant disease-causing pathogen of this genus, rates of infections caused by non-albicans Candida (NAC) species are increasing. Among these Candida species, only C. albicans is pathogenic in the normal mouse model. To test vaccine and mAbs against non-albicans Candida spp, we have developed neutropenic murine models of disseminated infection by C. glabrata, C. tropicalis, and C. parapsilosis. Before challenge, BLAB/c mice were made neutropenic by intraperitoneal receipt of a 200 mg/kg dose of cyclophosphamide (CY; Sigma-Aldrich) at day −3. The i.p. injection (150 mg/kg) is repeated every 10 days after infection (i.e., at days 10, 20, 30, and 40 post-infection) in order to maintain low neutrophil counts for the entire experimental procedure. […] To evaluate leukocytopenia in these mice, blood samples were collected from tail veins 3 days after each CY or saline injection (n=10 in each group). Total leukocyte and differential cell counts were determined on a hemocytometer and by Wright-Giemsa staining. Body weights of the mice were also measured and compared for 14 days after the first CY or saline injection (n=10 in each group).
Fungal challenge dose and assessment ofprotection. Although C. albicans remains the dominant disease-causing pathogen of this genus, rates of infections caused by non-albicans Candida (NAC) species are increasing (18). Among these Candida species, only C. albicans is pathogenic in the normal mouse model (19,20). We have developed neutropenic murine models of disseminated infection by C. glabrata, C. tropicalis, and C. parapsilosis. […] In details, mice of different experimental groups (five mice per group) were intravenously infected with 5×10^6 viable C. parapsilosis ATCC MYA-4646 (A), 1×108 C. glabrata ATCC 2001 cells (B) and 1×107 C. tropicalis ATCC 28775 cells (C) in 0.1 ml DPBS. As controls, immunocompetent mice were challenged with the same dose of each Candida strain tested.
Passive transfer of MAbs by intraperitoneal (i.p.) route. The preventive effect of peptide-specific mAbs listed in Table 3 and Table 4 in naïve mice was examined by passive transfer experiments. Each mAb was appropriately diluted in DPBS to give a 40,000-100,000 ELISA titer against each corresponding specific peptide coated on the plate. For testing, mice received 0.5 ml of each mAb or 1 ml of two mAbs in combination (0.5 ml of each) intraperitoneally. Table 6 and Table 7 have listed all the peptide-specific mAb combinations that have been tested, as well as the protective efficacy of each mAb cocktail as compared to single mAb treatment. […] For animal groups that were challenged non-albicans candida species, determined optimal challenge doses were applied for each candida strain. […]

B1: 1D4H5: IgG1 mAb of hybridoma 1D4H5, specific for GPV-M1; VH SEQ ID NO: 64, VL SEQ ID NO: 66 (antibody, V domains shown)
VH: MYLGLNCVFIVFLLKGVQSEVKLEESGGGLVQPGGSMKLSCVASGFTFSNYWMNWVRQSPEKGLEWVAEIRLKSNNYATHYAESVKGRFTISSDDSKSSVYLQMNNLRAEDTGIYYCSTGNYWGQGTTLTVSS
VL: MDFQMQIISLLLISVTVIVSNGEIVLTQSPTTMAASPGEKITITCSASSTISSNYLHWYQQKPGFSPKLLIYRTSNLASGVPARFSGSGSGTSYSLTIGTMEAEDVATYYCQQGSTISRTFGSGTKLEIK
Q: Which “Protection against C. parapsilosis” value does the source give for B1 here?
A: (70-80%)

Q: What about the “Protection against C. parapsilosis (grade word)” value of the same molecule?
A: High

B2: 10E7E2: IgG1 mAb of hybridoma 10E7E2, specific for GPV-P3; VH SEQ ID NO: 72, VL SEQ ID NO: 74 (antibody, V domains shown)
VH: QVQLKQSGPGLVQPSQSLSITCTVSGFSLTSYGVHWVRQSPGKGLEWLGVIWSGGTTDYNAAFISRLSISKDNSKSQVFFKMNSLQANDTAIYYCARGGHRGFAYWGQGTLVTVSA
VL: DIVMTQSHKFMSTSVGDRVSITCKASQDVGTAVAWYQQKPGQSPKLLIYWASTRHTGVPDRFTGSGSGTDFTLTISNVQSEDLADYFCQQYSSYPLTFGAGTKLELK
Q: How did the “Protection against C. parapsilosis” value turn out when B2 was run?
A: (60-80%)

Q: And the “Protection against C. parapsilosis (grade word)” value?
A: High
